Legend:
[1] = molecular target: T1, Trf2ΔN-FG3 (UmTrf2) (Ustilago maydis, UniProt A0A0D1E1Z3 415-1528); assay: EMSA
[2] = molecular target: T1, Trf2ΔN-FG3 (UmTrf2); assay: EMSA; remark: listed apart in the source

| Binder | Kd [1] [nM] | binding result [2] |
| --- | --- | --- |
| TTAGGG4 duplex (dsDNA) DNA 1: TTAGGGTTAGGGTTAGGGTTAGGG DNA 2: CCCTAACCCTAACCCTAACCCTAA | 20 | – |
| TTAGGG2 duplex (dsDNA) DNA 1: GGTTAGGGTTAG DNA 2: CTAACCCTAACC | – | no binding |

Source: paper doi:10.1101/2020.11.06.371997
